Some targets named below: HLA-A*02:01; HLA-B*07:02; HLA-B*35:01; HLA-B*53:01; HLA-B*57:01; HLA-B*44:03.
Common to all, as to assay: IEDB peptide-MHC binding, purified MHC/competitive/radioactivity; ≥ and ≤ were set here for values at or beyond the usual limits of such assays
Settings in all cases: source organism: Bordetella pertussis

These results are taken from the Immune Epitope Database (IEDB).

What is called IC50 is the concentration that gives 50% inhibition.

On to AALGRGHSL, for which the IC50 with HLA-A*02:01 came to 32.1 µM; with HLA-B*07:02, 19.6 µM.
Regarding EATQQAAGF, the IC50 with HLA-B*35:01 was 41.1 µM.
As to GYEAGFSLG, the IC50 with HLA-B*53:01 worked out at 26 µM.
On the same count and under the same terms, next, HADDGTIVI: 69.9 µM.
Consider HAQGKALLY, for which, in the assay with HLA-B*35:01, the IC50 came out at 0.385 µM.
In the case of ITNETGKTY, the concentration for half-maximal inhibition (IC50) with HLA-B*57:01 was at least 70.4 µM.
As for LASDGSVDF, the IC50 in the assay with HLA-B*53:01 amounted to 23.1 µM.
For the sequence LVFSHVRGM, in the assay with HLA-B*35:01, the IC50 was 19.8 µM.
Turning to MIYMSGLAV, in the assay with HLA-A*02:01, the IC50 is 2.86 µM.
For the sequence PGPTTDYST, the IC50 with HLA-B*44:03 was at least 78.2 µM.
Consider QITQHGGPY, for which the IC50 with HLA-B*35:01 was found to be 44 µM.
Same read-out and setting: next, QITQHGSPY: 34.5 µM.
As to TSRTVTMRY, the IC50 with HLA-B*57:01 came to 0.182 µM.
In the case of TVQELALKL, the IC50 in the assay with HLA-B*44:03 came to 12.5 µM.
Take VAMKPYEVT: the concentration for half-maximal inhibition (IC50) with HLA-B*35:01 was 69.9 µM.
As for VAVAGGRWH, the IC50 with HLA-B*44:03 was at least 78.2 µM.
